Test results published in US20190046659A1.

Biological target: human GPC3 on GPC3-positive cells (HepG2, Huh-7, SK-Hep-1 GPC3) (human) (UniProt P51654)
Test: cell-based or functional assay

Substance | killing rate of CAR T cells on Huh-7 cells, effector target ratio 1:3 [%] | killing rate of CAR T cells on Huh-7 cells, effector target ratio 1:1 [%]
chimeric antigen receptor GC33-28BBZ (GC33 scFv-CD28a-CD28b-CD137-CD3 zeta) on T cells | 23 | 
chimeric antigen receptor GC33-28Z (GC33 scFv-CD28a-CD28b-CD3 zeta) on T cells | 6 | 22
